Assay [1] addresses GLP-1R on CHO cells (CHO/GLP-1R). As to the kind of experiment: cell-based or functional assay.
The target in assay [2] is T1, Chinese hamster ovary (CHO) cell-derived soluble recombinant human G-CSF receptor (human, UniProt Q99062 25-627).
T1 construct: extracellular domain; Immobilised by amine coupling on the sensor chip; also called soluble human G-CSF receptor; R&D Systems 381-050/CF
T1 sequence (looked up): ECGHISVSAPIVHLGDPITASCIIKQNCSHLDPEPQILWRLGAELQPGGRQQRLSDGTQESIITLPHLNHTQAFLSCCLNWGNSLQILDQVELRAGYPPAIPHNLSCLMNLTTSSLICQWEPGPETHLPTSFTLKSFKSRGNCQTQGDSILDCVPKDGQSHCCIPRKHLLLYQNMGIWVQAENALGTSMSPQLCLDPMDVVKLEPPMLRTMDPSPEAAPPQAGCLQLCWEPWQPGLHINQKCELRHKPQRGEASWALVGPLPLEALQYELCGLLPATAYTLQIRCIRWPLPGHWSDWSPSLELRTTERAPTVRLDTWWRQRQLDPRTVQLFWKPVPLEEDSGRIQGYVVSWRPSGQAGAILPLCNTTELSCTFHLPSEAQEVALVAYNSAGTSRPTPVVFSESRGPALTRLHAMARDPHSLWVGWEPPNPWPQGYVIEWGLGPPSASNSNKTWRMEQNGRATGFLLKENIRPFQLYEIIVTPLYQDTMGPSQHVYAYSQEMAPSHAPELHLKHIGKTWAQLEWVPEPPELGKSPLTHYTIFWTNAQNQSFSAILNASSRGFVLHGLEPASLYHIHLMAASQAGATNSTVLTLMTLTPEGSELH
As to the kind of experiment: SPR (BIAcore 3000), receptor amine-coupled to the chip, analyte 6.25-100 nmol/L, 25 °C, 1:1 Langmuir fit.
Description: Surface plasmon resonance technology and the BIAcore 3000 biosensor (GE healthcare) were employed to measure in vitro binding affinity to the G-CSF receptor. Amine-coupling chemistry was used to immobilize the G-CSF receptor on CMS biosensor chip. […] The CMS sensor chip surface was activated by injecting a 1:1 mixture of 0.1 mol/L N-hydroxysuccinimide (GE healthcare) and 0.1 mol/L 3-(N,N-dimethylamino)propyl-N-ethylcarbodiamide (GE Healthcare). […] The chip surface was then blocked with ethanolamine/HCl (GE Healthcare), pH 8.5, and washed with a regeneration solution (50 mmol/L NaCl; 5 mmol/L NaOH). […] Binding affinity was calculated using the 1:1 Langmuir fitting model for each test material.

Assay [3] has as its target T2, Fc fragment of eflapegrastim (human, UniProt P01861 107-325 = IgG part, aglycosylated (made in recombinant E. coli cells)).
T2 construct: tested alone, without PEG and G-CSF; also called aglycosylated IgG4-Fc fragment; immunoglobulin Fc fragment
As to the kind of experiment: ELISA with GST-FcγRIIB, detection with anti-GST antibody. The protocol: For C1q, FcγRIIB, FcγRIIIA, and FcRn binding assays, serial dilutions of the test materials were added to 96-well microplates coated with C1q, or GST fusion proteins of FcγRIIB or FcγRIIIA, or FcRn αβ2. After incubation and washing, HRP-conjugated anti-C1q antibody was added for C1q binding assay, and rabbit-anti-GST antibody and HRP-conjugated anti-rabbit IgG antibody were sequentially added for FcγRIIB, FcγRIIIA, and FcRn binding assays. The absorbance was measured at 450 nm as described above for FcγRI binding assay.

T2 sequence (P01861 other isoform, or with tags, fused parts or gaps limits assumed): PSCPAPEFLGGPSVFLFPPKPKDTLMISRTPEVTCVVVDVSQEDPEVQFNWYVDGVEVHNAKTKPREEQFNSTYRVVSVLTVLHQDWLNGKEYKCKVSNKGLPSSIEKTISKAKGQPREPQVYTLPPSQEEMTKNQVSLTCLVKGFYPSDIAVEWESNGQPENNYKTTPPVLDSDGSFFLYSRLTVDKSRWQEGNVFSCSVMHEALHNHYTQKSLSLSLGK

In assay [1], “CA Exendin (lysine)-PEG-(lysine) Fc (Fc fusion)” had a % vs. Experimental group, CHO/GLP-1R bioassay of 16.1% and an EC50 (ng/ml), in vitro activity-CHO/GLP-1R bioassay of 59000 ng/mL.

B1: pegfilgrastim (ligand, human, UniProt P09919-2 31-204, looked up)
chain: TPLGPASSLPQSFLLKCLEQVRKIQGDGAALQEKLCATYKLCHPEELVLLGHSLGIPWAPLSSCPSQALQLAGCLSQLHSGLFLYQGLLQALEGISPELGPTLDTLQLDVADFATTIWQQMEELGMAPALQPTQGAMPAFASAFQRRAGGVLVASHLQSFLEVSYRVLRHLAQP
modifications: N-terminal methionine residue pegylated with a 20 kDa polyethylene glycol
notes: Commercial product; also called Neulasta
For the molecule B1, in assay [2], the Kd turned out to be 2.9 nM.

B2: GST fusion protein of FcγRIIB (receptor, UniProt P31994 43-217, looked up)
chain: TPAAPPKAVLKLEPQWINVLQEDSVTLTCRGTHSPESDSIQWFHNGNLIPTHTQPSYRFKANNNDSGEYTCQTGQTSLSDPVHLTVLSEWLVLQTPHLEFQEGETIVLRCHSWKDKPLVKVTFFQNGKSKKFSRSDPNFSIPQANHSHSGDYHCTGNIGYTLYSSKPVTITVQAP
notes: Order of receptor and GST unknown; not shown: GST
As for B2, in assay [3], the binding result was “no binding”.
